# Test results taken from patent CN113845595A (FUZHOU MAIXIN BIOTECHNOLOGY DEV CO LTD, dated 2021).
# Molecular target: T1, GH蛋白 (垂体瘤组织中的内源GH) (human, UniProt P01241 27-217)
# T1 construct: Endogenous antigen detected by immunohistochemistry in pituitary tumour samples; also called 人GH蛋白
# Experiment: immunohistochemistry on 9 pituitary tumour samples
# T1 sequence (P01241 27-217 limits assumed): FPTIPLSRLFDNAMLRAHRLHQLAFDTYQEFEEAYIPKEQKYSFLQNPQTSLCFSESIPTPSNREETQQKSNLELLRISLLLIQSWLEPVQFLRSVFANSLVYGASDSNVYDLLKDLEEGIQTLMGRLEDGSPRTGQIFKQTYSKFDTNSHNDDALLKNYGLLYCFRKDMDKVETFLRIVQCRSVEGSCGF
binder,measurement,value
"抗GH蛋白单克隆抗体(9D5D2A9) (antibody, V domains shown, also called GH单克隆抗体; CGMCC NO.22315) VH: QVQLKESGPGLVAPSQSLSITCTVSGFSLTNYGIHWVRQPPGKGLEWLGLIWSGGSTKYNSALMSRLSISRDNSKSQVFLKMNSLQSDDTAMYYCVRDELYAYWGQGTLVTVSA VL: DIVMTQSHKFMSTSVGDRVSITCKASQDVGPTVAWYQQKPGQSPKLLIYWASTRHTGVPDRFTGSGYGTDFTLTISNVQSEDLADYFCQQYSSYPFTFGSGTKLEIK",binding result,binds
